In publication PMC10694592:
pKd: −log10 of the molar value.

Target: FITC-labeled 45-mer peptide derived from the C-terminal region of IKKβ
Assay: fluorescence polarisation; fluorescence anisotropy binding assay with an FITC-labeled 45-mer peptide of IKKβ and bacterially expressed full-length NEMO proteins; conditions not told here (refs 13, 26)

Sequence of full-length WT NEMO (aa 1-419), bacterially expressed (Q9Y6K9 whole entry, the tested form may be a part): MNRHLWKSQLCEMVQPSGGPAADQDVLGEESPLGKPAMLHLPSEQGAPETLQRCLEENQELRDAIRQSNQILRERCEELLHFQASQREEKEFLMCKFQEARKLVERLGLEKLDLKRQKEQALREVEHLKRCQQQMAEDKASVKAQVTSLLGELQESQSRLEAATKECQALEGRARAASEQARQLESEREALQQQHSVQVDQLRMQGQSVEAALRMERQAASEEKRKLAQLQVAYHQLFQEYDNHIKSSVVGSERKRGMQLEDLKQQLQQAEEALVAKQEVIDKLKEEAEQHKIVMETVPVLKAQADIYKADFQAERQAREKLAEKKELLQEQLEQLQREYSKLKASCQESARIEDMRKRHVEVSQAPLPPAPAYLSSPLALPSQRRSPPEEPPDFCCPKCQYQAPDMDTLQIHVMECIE

pKd | Substance
7.48 | OPTN-IVD-NEMO (aa 1-419), bacterially expressed (from UniProt Q9Y6K9 1-419) (natural protein)
8.33 | full-length WT NEMO (aa 1-419), bacterially expressed (from UniProt Q9Y6K9 1-419) (natural protein)
